This series concerns the target MeCP2-MBD WT (Homo sapiens, UniProt P51608 80-164). The experiment in a line: ITC. On the technique in general: ITC needs no label: the signal is the heat of the interaction.

MeCP2-MBD WT, sequence (P51608 80-164): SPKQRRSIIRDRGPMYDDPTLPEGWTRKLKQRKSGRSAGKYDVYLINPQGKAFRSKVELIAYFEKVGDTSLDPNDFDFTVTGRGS

B1: Mutated MARs DNA 16mer (dsDNA)
DNA 1: GCCCTGGTGTAGTGGC
DNA 2: GCCACTACACCAGGGC
For orientation: Kd means the free concentration of one partner at which half of the binding sites on the other are occupied at equilibrium, for simple one-to-one binding. Take B1: binding was put at a Kd of 3.8 ± 0.7 µM.

B2: MARs DNA 16mer (dsDNA)
DNA 1: GTGCAGGTGTCCTTAA
DNA 2: TTAAGGACACCTGCAC
In the case of B2, the affinity, expressed as Kd, was 2.8 ± 0.2 µM.

(Values after paper doi:10.1101/581934.)
